Results taken from patent publication US20250325630A1, “HOMODIMER FUSION PROTEINS FOR TREATING ATOPIC DERMATITIS” (Intervet Inc., priority 2021, published 2025).

Columns and labels:
canine IL-31Rα = assay: ELISA binding of chimeric and caninized antibodies to canine IL-31Rα; settings: FIG. 1-3, in words
Protocol: The nucleotide and deduced amino acid sequence of the HC and LC of selected rat antibodies reactive with canine IL-31Rα was determined. The amino acid sequences representing the 3 HC CDRs and 3 LC CDRs for each antibody also were determined. These CDRs were used to develop caninized antibodies that bind canine IL-31Rα ECD. The binding of caninized antibodies to IL-31Rα was determined by ELISA as follows:
• 1. Anti-Dog IgG (cFc specific)-Peroxidase (Sigma-Aldrich SAB3700109-1.5 MG) • 2. TMB-ELISA Substrate (Thermo-Fisher Cat #34028) • 3. PBS pH7.4 (Thermo-Fisher Cat #10010001) • 4. Tris Buffered Saline with Tween 20 (TBST) (Sigma-Aldrich T9039-10PAK)
• 1. Coat immunoplates by cIL-31Rα in PBS buffer at 1 μg/mL, 100 μL/well. Incubate the plates at 37° C. for 1-2 hrs or 4° C. overnight. • 2. Wash the plates 3 times by TBST buffer. • 3. Block the plates by blocking buffer (0.5% BSA in TBST) for 45-60 minutes at room temperature. • 4. Three-fold dilute anti-cIL31-Ra antibodies with blocking buffer in dilution plates and transfer the diluted antibodies into the cIL-31Rα coated plates, incubate 45-60 minutes at room temperature. • 5. Wash the plates 3 times by TBST. • 6. Add 1:2000 diluted HRP conjugated anti-dog IgG Fc into the plates, incubate 45-60 minutes at room temperature. • 7. Wash the plates 3 times by TBST. • 8. […] Read the plates by plate reader at […].

canine IL-13 [1] = molecular target: T1, canine IL-13 (canine, UniProt Q9N0W9 19-131, limits assumed, biotin-labeled in the Octet assay (site not stated)); assay: cell-based or functional assay
T1 sequence (looked up): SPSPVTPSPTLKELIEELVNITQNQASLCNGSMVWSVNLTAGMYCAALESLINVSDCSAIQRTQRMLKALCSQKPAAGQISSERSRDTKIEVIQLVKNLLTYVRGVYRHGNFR

canine IL-4 [2] = molecular target: T2, canine IL-4 (canine, UniProt O77762 25-132, biotin-labeled in the Octet assay (site not stated)); assay: cell-based or functional assay
T2 sequence (looked up): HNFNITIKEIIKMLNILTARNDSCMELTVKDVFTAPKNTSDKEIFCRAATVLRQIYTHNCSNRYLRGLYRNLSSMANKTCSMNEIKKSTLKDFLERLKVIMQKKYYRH

canine IL-13 [3] = molecular target: T1, canine IL-13; assay: cell-based or functional assay; remark: listed apart in the source
canine IL-4 [4] = molecular target: T2, canine IL-4; assay: cell-based or functional assay; remark: listed apart in the source
canine IL-13 [5] = molecular target: T1, canine IL-13; assay: cell-based or functional assay; remark: listed apart in the source
canine IL-13 [6] = molecular target: T1, canine IL-13; assay: BLI (Octet); summary table, rounded from Table 4
canine IL-4 [7] = molecular target: T2, canine IL-4; assay: BLI (Octet HTX), biotin-cIL-4 on SA biosensors; ND = Binding Not Detected
Protocol: The binding constants for the cFc fusion proteins provided in Tables 3 and 4 below, were determined using OCTET® HTX. All kinetics measurements were performed by OCTET® HTX using SA® biosensors and DATA ACQUISITION® 12.0 software. 10 μg/mL of biotin-labeled antigen, either canine IL-4 (cIL-4) or canine IL-13 (cIL-13) were loaded onto the SAR biosensors for 120 seconds. Next, the biosensors were placed into 1×pH 7.0 TBS/Casein buffer for 60 seconds for the blocking phase. For the association phase, antigen loaded biosensors were placed into 2-fold serial dilutions from 1 μM down to 15.6 nM of the wild-type, the bispecific, or the FcRn-mutant receptor Fc-fusions that recognized the cIL-4 or cIL-13 antigen in 1×pH 7.0 TBS/Casein buffer for 30 seconds. The last well was buffer alone and that sensor was used for reference sensor subtraction. Finally, the biosensors were placed into 1×pH 7.0 TBS/Casein buffer for 120 seconds for the dissociation phase. The results were then analyzed using Data Analysis 12.0 software and the curves were fitted using a 1:1 binding model.

canine IL-13 [8] = molecular target: T1, canine IL-13; assay: BLI (Octet HTX), biotin-cIL-13 on SA biosensors, fusion protein in solution, 1:1 fit

B1: c10A12 H2L6: caninized rat 10A12 anti-canine IL-31Rα antibody; likely c10A12VH2-cIgGBm (SEQ ID NO: 27) with c10A12VL6-cCl (SEQ ID NO: 31) (antibody)
heavy: EVQLVESGGDLVKPGGSLRLSCAASGFTFSNYYMAWVRQAPGKGLQWVASISTGGGNTYYRDSVKGRFTISRDNAKNTLYLQMNSLRAEDTAMYYCARHGTLYFDYWGQGTLVTVSSASTTAPSVFPLAPSCGSTSGSTVALACLVSGYFPEPVTVSWNSGSLTSGVHTFPSVLQSSGLYSLSSMVTVPSSRWPSETFTCNVAHPASKTKVDKPVPKRENGRVPRPPDCPKCPAPEMLGGPSVFIFPPKPKDTLLIARTPEVTCVVVALDPEDPEVQISWFVDGKQMQTAKTQPREEQFAGTYRVVSVLPIGHQDWLKGKQFTCKVNNKALPSPIERTISKARGQAHQPSVYVLPPSREELSKNTVSLTCLIKDFFPPDIDVEWQSNGQQEPESKYRTTPPQLDEDGSYFLYSKLSVDKSRWQRGDTFICAVMHEALHNHYTQESLSHSPGK
light: QPVLTQPPSLSASLGTTARLTCERSSGDIGDSYVSWYQQKPGSPPRDVIYVDDQRPSEVSKSFSGSKDTSANAGLLLISGLQPEDEADYFCQSYDSNIDGPVFGGGTHLTVLGQPKASPSVTLFPPSSEELGANKATLVCLISDFYPSGVTVAWKADGSPVTQGVETTKPSKQSNNKYAASSYLSLTPDKWKSHSSFSCLVTHEGSTVEKKVAPAECS
Q: How did the “EC50 of binding to canine IL-31Rα compared with the corresponding chimeric antibody” value (canine IL-31Rα) turn out when B1 was run?
A: even lower than the EC50 for the corresponding chimeric 10A12 antibody

B2: c44E2 H5k1: caninized rat 44E2 anti-canine IL-31Rα antibody; likely c44E2VH5-cIgGBm (SEQ ID NO: 43) with c44E2VL1-cCk (SEQ ID NO: 45) (antibody)
heavy: ELTLQESGPGLVKPSQTLSLTCTVSGFSLTSNGVSWIRQRPGRGLEWMGAISSGGSTYYNSVLKSRISITADTAKNQFSLQLSSMTTEDTAVYYCARRLSGYNYVPFAYWGQGTLVTVSSASTTAPSVFPLAPSCGSTSGSTVALACLVSGYFPEPVTVSWNSGSLTSGVHTFPSVLQSSGLYSLSSMVTVPSSRWPSETFTCNVAHPASKTKVDKPVPKRENGRVPRPPDCPKCPAPEMLGGPSVFIFPPKPKDTLLIARTPEVTCVVVALDPEDPEVQISWFVDGKQMQTAKTQPREEQFAGTYRVVSVLPIGHQDWLKGKQFTCKVNNKALPSPIERTISKARGQAHQPSVYVLPPSREELSKNTVSLTCLIKDFFPPDIDVEWQSNGQQEPESKYRTTPPQLDEDGSYFLYSKLSVDKSRWQRGDTFICAVMHEALHNHYTQESLSHSPGK
light: EIVMTQSPASLSLSQEEKVTITCKASQNIYKHLAWYQQKPGQAPKLLIYNANSLQTGVPSRFSGSGSGTDFSFTISSLEPEDVAVYYCQQYYSGDTFGAGTKVELKRNDAQPAVYLFQPSPDQLHTGSASVVCLLNSFYPKDINVKWKVDGVIQDTGIQESVTEQDKDSTYSLSSTLTMSSTEYLSHELYSCEITHKSLPSTLIKSFQRSECQRVD
Q: Which “EC50 of binding to canine IL-31Rα compared with the corresponding chimeric antibody” value (canine IL-31Rα) does the source give for B2 here?
A: most similar to the EC50 of the corresponding chimeric 44E2 antibody

B3: cIL-4Rα-13Rα2 ZW1-cFc (Fc fusion)
chain 1: VKVLHEPSCFSDYISTSVCQWKMDHPTNCSAELRLSYQLDFMGSENHTCVPENREDSVCVCSMPIDDAVEADVYQLDLWAGQQLLWSGSFQPSKHVKPRTPGNLTVHPNISHTWLLMWTNPYPTENHLHSELTYMVNVSNDNDPEDFKVYNVTYMGPTLRLAASTLKSGASYSARVRAWAQTYNSTWSDWSPSTTWLNYYEPWEQHLPPKRENGRVPRPPDCPKCPAPEMLGGPSVFIFPPKPKDTLLIARTPEVTCVVVDLDPEDPEVQISWFVDGKQMQTAKTQPREEQFNGTYRVVSVLPIGHQDWLKGKQFTCKVNNKALPSPIERTISKARGQAHQPSVYVYPPSREELSKNTVSLTCLIKDFFPPDIDVEWQSNGQQEPESKYRTTPPQLDEDGSYALVSKLSVDKSRWQRGDTFICAVMHEALHNHYTQESLSHSPGK
chain 2: SMLSNAEIKVNPPQDFEIVDPGYLGYLSLQWQPPLFPDNFKECTIEYELKYRNIDSENWKTIITKNLHYKDGFDLNKGIEAKINTLLPAQCTNGSEVRSSWAETTYWTSPQGNRETKIQDMDCVYYNWQYLVCSWKPGMGVHFDTNYQLFYWYEGLDHSAECTDYIKVNGKNMGCRFPYLESSDYKDFYICVNGSSESQPIRPSYFIFQLQNIVKPMPPDYLSLTVKNSEEINLKWNMPKGPIPAKCFIYEIEFTEDGTTWVTTTVENEIQITRTSNESQKLCFLVRSKVNIYCSDDGIWSEWSDEQCWKGDIWKETPKRENGRVPRPPDCPKCPAPEMLGGPSVFIFPPKPKDTLLIARTPEVTCVVVDLDPEDPEVQISWFVDGKQMQTAKTQPREEQFNGTYRVVSVLPIGHQDWLKGKQFTCKVNNKALPSPIERTISKARGQAHQPSVYVLPPSREELSKNTVSLLCLIKDFFPPDIDVEWQSNGQQEPESKYLTWPPQLDEDGSYFLYSKLSVDKSRWQRGDTFICAVMHEALHNHYTQESLSHSPGK
notes: also called cIL4Rα-IL13Rα2_ZW1-cFc; cIL-4Rα-IL13Rα2_ZW1-cFc
Q: With B3 as the molecule, how does the “fold change of the concentration that inhibits 50% of the cIL-13 mediated STAT6 phosphorylation in DH82 cells, against cIL-13Rα2-cFc” value (canine IL-13 [1]) read?
A: ~200 fold higher

Q: What about the “IL-4 IC50 (inhibition of cIL-4 mediated STAT6 phosphorylation in DH82 cells)” value (canine IL-4 [2]) of the same molecule?
A: 184 nM

Q: And the “IL-13 IC50 (inhibition of cIL-13 mediated STAT6 phosphorylation in DH82 cells)” value (canine IL-13 [3])?
A: 29.4 nM

Q: What about the “IL-4 (IC50), summary table” value (canine IL-4 [4]) of the same molecule?
A: 200 nM

Q: What about the “IL-13 (IC50), summary table” value (canine IL-13 [5]) of the same molecule?
A: 30 nM

Q: And the Kd (canine IL-13 [6])?
A: 4 nM

Q: Does B3 bind (canine IL-4 [7])?
A: no binding (tested: 1 µM (highest concentration tested))

Q: What about the Kd (canine IL-13 [8]) of the same molecule?
A: 4.15 nM

Q: What about the koff (canine IL-13 [8]) of the same molecule?
A: 0.000135 s⁻¹

Q: And the kon (canine IL-13 [8])?
A: 32600 M⁻¹ s⁻¹
